Results on one substance are retold here after paper PMC9520032.

In this assay the target is Vibrio cholerae cytolysin E289A mutant, mature form (Vibrio cholerae). The assay is described as follows: cryo-EM structure.

Regarding “Vibrio cholerae cytolysin E289A mutant, mature form (natural protein)”, the stoichiometry N was found to be 7.
